Results taken from patent US7005283B2, “Cytochrome P450 oxygenases and their uses” (Washington State University Research Foundation, priority 1999, dated 2006).

Legend:
[1] = type: binding, Saccharomyces cerevisiae
How it was run: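 Full-length Taxus cytochrome P450 clones in pYeDP60 were expressed in yeast, with induction by galactose (10% final) for about 24 h. Whole cells were treated with CO, and CO-difference spectra were recorded spectrophotometrically against untreated cells.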

[2] = In vivo assay of yeast cells expressing recombinant oxygenases, radio-HPLC, substrate taxadiene; type: cell-based, Saccharomyces cerevisiae; conditions: assayed with Taxadiene; graded symbols, key not given
[3] = In vitro enzyme assay for taxoid oxygenase activity (baculovirus-Spodoptera expressed enzyme), substrate taxadiene; type: biochemical, Spodoptera frugiperda; conditions: 30 μM substrate, 32° C., 12 hours
Experimental: The standard enzyme assay for assessing oxygenase activity of the recombinant cytochrome P450 employed the following conditions: 25 mM HEPES buffer, pH 7.5, 400 μM NADPH, 300 μg protein and 30 μM substrate (taxadiene, taxadienol, or taxadienyl acetate) in a total volume of 1 mL. Samples were incubated at 32° C. for 12 hours, after which 1 mL of saturated NaCl solution was added to the reaction mixture, followed by extraction of the product with 2 mL of hexane/ethyl acetate (4:1, v/v). […]
For the functional characterization of clone F16, the recombinant baculovirus carrying the cytochrome P450 clone F16 ORF was coexpressed with a recombinant baculovirus carrying the Taxus NADPH:cytochrome P450 reductase gene. […] The viral titers were determined according to the End-Point Dilution method (O'Reilly et al., Baculovirus Expression Vectors, A Laboratory Manual, New York, N.Y., Freeman and Company, 1992). […]

[4] = In vitro enzyme assay for taxoid oxygenase activity (baculovirus-Spodoptera expressed enzyme), substrate taxadienol; type: biochemical, Spodoptera frugiperda
Experimental: The standard enzyme assay for assessing oxygenase activity of the recombinant cytochrome P450 employed the following conditions: 25 mM HEPES buffer, pH 7.5, 400 μM NADPH, 300 μg protein and 30 μM substrate (taxadiene, taxadienol, or taxadienyl acetate) in a total volume of 1 mL. Samples were incubated at 32° C. for 12 hours, after which 1 mL of saturated NaCl solution was added to the reaction mixture, followed by extraction of the product with 2 mL of hexane/ethyl acetate (4:1, v/v). The extracts were dried and dissolved in acetonitrile for product analysis by radio-HPLC [column: Alltech Econosil C18 5 μm particle size (250 mm×4.6 mm): solvent system A: 0.01% (v/v) H3PO4, 2% acetonitrile, 97.99% H2O; solvent system B: 0.01% H3PO4, 99.99 acetonitrile; gradient: 0–5 minutes, 100% A; 5–15 minutes, 0–50% B; 15–55 minutes, 50–100% B; 55–65 minutes, 100% B; 65–70 minu A; 70–75 minutes, 100% A; flow rate 1 mL/minute; for detection, a radio-chromatography detector (Flow-One®-Beta Series A-100, Radiomatic) was used].
For the functional characterization of clone F16, the recombinant baculovirus carrying the cytochrome P450 clone F16 ORF was coexpressed with a recombinant baculovirus carrying the Taxus NADPH:cytochrome P450 reductase gene. To the insect cell suspension, the two recombinant baculoviruses were added at a multiplicity of infection of 1–5. The viral titers were determined according to the End-Point Dilution method (O'Reilly et al., Baculovirus Expression Vectors, A Laboratory Manual, New York, N.Y., Freeman and Company, 1992). For infection, the cells were incubated for 1 hour at 28° C. and 80 rpm. The cell culture volume was brought to 50 mL with standard cell culture medium, and hemin (Sigma) was added to a final concentration of 2 μg/mL. The infected cells were incubated for 48 hours in a gyratory shaker at 28° C. and 140 rpm. The infected insect cells were harvested from the cell culture medium by centrifugation as described above, and washed twice with PBS (50 mM KH2PO4, pH 7.5, 0.9% NaCl). […]

B1: clone F16: Taxus cuspidata cytochrome P450 taxane 9α-hydroxylase, full-length clone, SEQ ID NO: 82 (nt) / 88 (aa) (protein, listed as Taxus cuspidata)
chain: MDALKQLEVSPSILFVTLAVMAGIILFFRSKRHSSVKLPPGNLGFPLVGETLQFVRSLGSSTPQQFIEERMSKFGDVFKTSIIGHPTVVLCGPAGNRLVLSNENKLVQMSWPSSMMKLIGEDCLGGKTGEQHRIVRAALTRFLGPQALQNHFAKMSSGIQRHINEKWKGKDEATVLPLVKDLVFSVASRLFFGITEEHLQEQLHNLLEVILVGSFSVPLNIPGFSYHKAIQARATLADIMTHLIEKRRNELRAGTASENQDLLSVLLTFTDERGNSLADKEILDNFSMLLHGSYDSTNSPLTMLIKVLASHPESYEKVAQEQFGILSTKMEGEEIAWKDLKEMKYSWQVVQETLRMYPPIFGTFRKAITDIHYNGYTIPKGWKLLWTTYSTQTKEEYFKDADQFKPSRFEEEGKHVTPYTYLPFGGGMRVCPGWEFAKMETLLFLHHFVKAFSGLKAIDPNEKLSGKPLPPLPVNGLPIKLYSRS
CO diff. spec. [1]: +++ | product identified HPLC peak [2]: No | conversion of taxadiene to an oxygenated product [3]: not converted detectably | conversion of taxa-4(20),11(12)-dien-5α-ol ([4]; 30 μM substrate, 32° C., 12 hours, GC-MS): converted most efficiently to a diol product | enzyme function assigned from screening ([4]; baculovirus-Spodoptera expression): cytochrome P450 taxane-9α-hydroxylase | identity of the product of the oxygenase reaction with taxadienol ([4]; preparative incubation, 1H- and 13C-NMR): taxa-4(20),11(12)-dien-5α,9α-diol
